Measured values from patent US20240052051A1 (Regeneron, published 2024).

Target: T1, human transferrin receptor extracellular domain with hexahistidine-myc-myc tag (REGN2431) (human, UniProt P02786 89-760)
T1 construct: also called hTFR-mmh; hmm.hTfRC
Experiment: blocking ELISA: supernatant pre-mixed with 300 pM Hmm-hTFRC, hTFRC bound to immobilized human holo-Tf read
Procedure: In the blocking assay, the anti-human Transferrin goat IgG polyclonal antibody (anti-hTf pAb) was passively absorbed at a concentration of 2 micrograms/mL in PBS on a 96-well microtiter plate overnight at 4° C. […] To the same plate, human holo-Tf was then added at a concentration of 1 micrograms/mL in PBS+0.5% BSA for 2 hours at room temperature. […] After a 1-hour incubation, the mixtures were transferred to the human holo-Tf microtiter plates. […] The plates were developed using TMB substrate solution according to the manufacturer's recommended procedure and absorbance at 450 nm was measured on a Victor™ Multilabel Plate Reader.
The ability of the anti-TfR antibody to block human TFRC binding to human holo-Tf was evaluated using an ELISA-based blocking assay.

T1 sequence (P02786 other isoform, or with tags, fused parts or gaps): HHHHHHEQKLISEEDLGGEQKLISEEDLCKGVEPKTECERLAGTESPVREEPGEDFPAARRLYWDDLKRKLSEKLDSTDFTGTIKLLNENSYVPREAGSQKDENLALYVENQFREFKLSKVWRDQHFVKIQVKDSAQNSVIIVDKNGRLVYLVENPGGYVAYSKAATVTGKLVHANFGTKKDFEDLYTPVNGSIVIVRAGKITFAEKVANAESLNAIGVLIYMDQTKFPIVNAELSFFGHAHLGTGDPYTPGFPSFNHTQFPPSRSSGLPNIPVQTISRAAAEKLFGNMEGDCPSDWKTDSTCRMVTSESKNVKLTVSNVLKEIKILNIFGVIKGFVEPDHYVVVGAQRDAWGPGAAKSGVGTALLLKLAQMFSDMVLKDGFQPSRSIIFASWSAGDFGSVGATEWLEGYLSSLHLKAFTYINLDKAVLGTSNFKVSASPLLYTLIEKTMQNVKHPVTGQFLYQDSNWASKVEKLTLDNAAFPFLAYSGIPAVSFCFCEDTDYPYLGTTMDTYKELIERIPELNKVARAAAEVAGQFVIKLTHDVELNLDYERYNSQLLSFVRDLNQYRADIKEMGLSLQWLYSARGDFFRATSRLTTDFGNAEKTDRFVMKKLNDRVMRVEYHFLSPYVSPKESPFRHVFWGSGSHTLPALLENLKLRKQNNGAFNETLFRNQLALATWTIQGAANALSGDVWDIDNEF

- % Blocking: 0%
B1: 69348 anti-hTfR scFv (VH-VK) (scFv)
scFv: QVQLVESGGGVVQPGRSLRLSCAASGFTFTTYGMHWVRQAPGKGLEWVAVIWYDGSNKYYGDSVKGRFTISRDNSKNTLYLQMNSLRVDDTAVYYCTRTHGYTRSSDGFDYWGQGTLVTVSSGGGGSGGGGSGGGGSDIQMTQSPSSLSASVGDRVTITCRASQSIRNVLGWFQQKPGKAPQRLIYAASSLQSGVPSRFSGSGSGTEFTLTISSLQPEDFATYYCLQHNFYPLTFGGGTKVEIK
notes: also called 69348 scFv (VH - VK) Format
